Experiments:
[1] = biological target: T1, MBP-PHAX103–196 (wild type) (human, UniProt Q9H814 103-196); assay: ITC
T1 chain: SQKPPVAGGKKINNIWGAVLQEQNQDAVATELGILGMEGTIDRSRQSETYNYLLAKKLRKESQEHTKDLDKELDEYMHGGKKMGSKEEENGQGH

[2] = biological target: MBP-PHAX103–196 R147E, Y152E, Y154E (human, UniProt Q9H814 103-196, R147E | Y152E | Y154E); assay: ITC; CBC bound to m7GpppG
[3] = biological target: T1, MBP-PHAX103–196 (wild type); assay: ITC; CBC bound to m7GpppG

Kd [1]: 1860 nM | Kd [2]: 1970 nM | Kd [3]: 1450 nM
B1: Human nuclear cap-binding complex (CBC): CBP80ΔNLS with CBP20 (complex)
chain 1: KTSDANETEDHLESLICKVGEKSACSLESNLEGLAGVLEADLPNYKSKILRLLCTVARLLPEKLTIYTTLVGLLNARNYNFGGEFVEAMIRQLKESLKANNYNEAVYLVRFLSDLVNCHVIAAPSMVAMFENFVSVTQEEDVPQVRRDWYVYAFLSSLPWVGKELYEKKDAEMDRIFANTESYLKRRQKTHVPMLQVWTADKPHPQEEYLDCLWAQIQKLKKDRWQERHILRPYLAFDSILCEALQHNLPPFTPPPHTEDSVYPMPRVIFRMFDYTDDPEGPVMPGSHSVERFVIEENLHCIIKSHWKERKTCAAQLVSYPGKNKIPLNYHIVEVIFAELFQLPAPPHIDVMYTTLLIELCKLQPGSLPQVLAQATEMLYMRLDTMNTTCVDRFINWFSHHLSNFQFRWSWEDWSDCLSQDPESPKPKFVREVLEKCMRLSYHQRILDIVPPTFSALCPANPTCIYKYGDESSNSLPGHSVALCLAVAFKSKATNDEIFSILKDVPNPNQDDDDDEGFSFNPLKIEVFVQTLLHLAAKSFSHSFSALAKFHEVFKTLAESDEGKLHVLRVMFEVWRNHPQMIAVLVDKMIRTQIVDCAAVANWIFSSELSRDFTRLFVWEILHSTIRKMNKHVLKIQKELEEAKEKLARQHKRRSDDDDRSSDRKDGVLEEQIERLQEKVESAQSEQKNLFLVIFQRFIMILTEHLVRCETDGTSVLTPWYKNCIERLQQIFLQHHQIIQQYMVTLENLLFTAELDPHILAVFQQFCALQA
chain 2: MSGGLLKALRSDSYVELSQYRDQHFRGDNEEQEKLLKKSCTLYVGNLSFYTTEEQIYELFSKSGDIKKIIMGLDKMKKTACGFCFVEYYSRADAENAMRYINGTRLDDRIIRTDWDAGFKEGRQYGRGRSGGQVRDEYRQDYDAGRGGYGKLAQNQ
